Laboratory results: article PMC6447045 (Nature chemical biology, 2019)

B1: chimeric ARNT-GFP protein (ARNT residues 82–470 fused to Aequorea GFP) (domain or fragment)
chain: not shown

Legend:
Assay in all cases: FRET or BRET
[1] = biological target: T1, His-tagged NPAS3 (neuronal PAS domain protein 3) (UniProt Q9QZQ0 56-455)
T1 sequence (looked up): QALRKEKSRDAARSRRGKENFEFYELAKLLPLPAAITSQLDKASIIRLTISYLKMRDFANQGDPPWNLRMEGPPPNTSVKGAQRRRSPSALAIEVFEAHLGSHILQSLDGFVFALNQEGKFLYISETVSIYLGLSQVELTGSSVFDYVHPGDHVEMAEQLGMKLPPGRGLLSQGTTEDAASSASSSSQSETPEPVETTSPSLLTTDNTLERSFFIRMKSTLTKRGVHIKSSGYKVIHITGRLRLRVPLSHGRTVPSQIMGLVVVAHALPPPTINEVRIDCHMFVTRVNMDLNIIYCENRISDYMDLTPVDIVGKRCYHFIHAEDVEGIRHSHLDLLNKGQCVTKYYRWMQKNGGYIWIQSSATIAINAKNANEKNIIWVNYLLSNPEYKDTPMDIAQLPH

[2] = biological target: B1
[3] = biological target: ARNT F446L-GFP (ARNT residues 82–470 fused to Aequorea GFP) (mouse, UniProt P53762 82-470, F446L)
Chain of ARNT F446L-GFP (ARNT residues 82–470 fused to Aequorea GFP) (P53762 82-470 F446L): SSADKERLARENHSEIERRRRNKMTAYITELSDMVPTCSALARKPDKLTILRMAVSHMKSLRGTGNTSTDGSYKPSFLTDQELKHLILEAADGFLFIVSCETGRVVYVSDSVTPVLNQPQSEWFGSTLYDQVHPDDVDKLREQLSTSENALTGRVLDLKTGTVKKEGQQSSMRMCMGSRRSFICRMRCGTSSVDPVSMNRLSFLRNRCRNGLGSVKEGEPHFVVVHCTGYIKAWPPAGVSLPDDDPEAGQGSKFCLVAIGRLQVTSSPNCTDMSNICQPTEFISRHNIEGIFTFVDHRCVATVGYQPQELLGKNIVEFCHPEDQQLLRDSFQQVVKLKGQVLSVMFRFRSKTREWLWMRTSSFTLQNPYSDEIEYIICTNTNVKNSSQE

B1
Kd [1]: 8.6 nM

B2: HIF-2α mutant M252A (3–361), His-tagged (domain or fragment)
chain: not shown
Kd [2]: 1.4 nM

B3: HIF-2α G323E (3–361), His-tagged (domain or fragment)
chain: not shown
Kd [2]: ~10.5 nM

B4: His-tagged HIF-1α (domain or fragment)
chain: not shown
Kd [2]: 11.7 nM

B5: mouse HIF-2α bHLH-PAS-A-PAS-B region (3–361), His-tagged (domain or fragment)
chain: not shown
Kd [3]: ~0.8 nM
Kd [2]: 29.1 nM
